Measurements taken from IntAct's records for PubMed 30564455.

Molecular target: ddb1_human DDB1 (UniProt Q16531)
Sequence (Q16531 whole entry): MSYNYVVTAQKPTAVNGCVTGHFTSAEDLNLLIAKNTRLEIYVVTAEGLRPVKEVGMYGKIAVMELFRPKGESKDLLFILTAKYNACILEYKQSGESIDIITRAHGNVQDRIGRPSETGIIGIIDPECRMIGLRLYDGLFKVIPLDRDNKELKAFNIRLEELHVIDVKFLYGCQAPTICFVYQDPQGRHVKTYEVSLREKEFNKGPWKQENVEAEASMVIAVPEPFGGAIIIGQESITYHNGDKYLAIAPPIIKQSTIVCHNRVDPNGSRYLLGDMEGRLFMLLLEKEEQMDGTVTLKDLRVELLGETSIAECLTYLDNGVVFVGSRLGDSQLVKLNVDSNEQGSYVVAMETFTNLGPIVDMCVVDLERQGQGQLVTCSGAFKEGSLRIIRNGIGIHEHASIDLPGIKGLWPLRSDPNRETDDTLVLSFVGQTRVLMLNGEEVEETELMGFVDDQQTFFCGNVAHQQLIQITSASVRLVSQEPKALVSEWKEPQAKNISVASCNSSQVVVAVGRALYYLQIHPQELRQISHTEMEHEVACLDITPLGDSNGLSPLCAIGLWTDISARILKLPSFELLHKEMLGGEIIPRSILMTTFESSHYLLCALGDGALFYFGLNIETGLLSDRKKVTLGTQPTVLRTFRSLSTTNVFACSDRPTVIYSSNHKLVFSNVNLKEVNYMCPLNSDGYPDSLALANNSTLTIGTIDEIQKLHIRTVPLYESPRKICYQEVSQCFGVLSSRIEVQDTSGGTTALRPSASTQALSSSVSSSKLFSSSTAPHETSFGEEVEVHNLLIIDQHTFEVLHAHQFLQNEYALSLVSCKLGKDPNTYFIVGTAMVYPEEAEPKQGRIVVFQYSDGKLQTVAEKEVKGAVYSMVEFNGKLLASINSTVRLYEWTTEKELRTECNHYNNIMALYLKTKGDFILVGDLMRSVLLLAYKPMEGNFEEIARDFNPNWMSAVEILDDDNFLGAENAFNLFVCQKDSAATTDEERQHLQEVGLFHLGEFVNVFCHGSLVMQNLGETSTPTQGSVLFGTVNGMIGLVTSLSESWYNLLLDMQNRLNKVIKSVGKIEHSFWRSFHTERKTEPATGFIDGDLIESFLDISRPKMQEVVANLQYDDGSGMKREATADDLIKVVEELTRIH

effect of a mutation on the interaction | Substance
disrupting interaction strength | DET1- and DDB1-associated protein 1 (Homo sapiens) (from UniProt Q9BW61) P9D
disrupting interaction strength | DET1- and DDB1-associated protein 1 (Homo sapiens) (from UniProt Q9BW61) N15D
disrupting interaction strength | DET1- and DDB1-associated protein 1 (Homo sapiens) (from UniProt Q9BW61) F16D
disrupting interaction strength | DET1- and DDB1-associated protein 1 (Homo sapiens) (from UniProt Q9BW61) H20D
